Laboratory results published in publication PMC4691890.

Target: T1, full-length human Apaf-1 (residues 1–1248) (human), O14727
T1 chain: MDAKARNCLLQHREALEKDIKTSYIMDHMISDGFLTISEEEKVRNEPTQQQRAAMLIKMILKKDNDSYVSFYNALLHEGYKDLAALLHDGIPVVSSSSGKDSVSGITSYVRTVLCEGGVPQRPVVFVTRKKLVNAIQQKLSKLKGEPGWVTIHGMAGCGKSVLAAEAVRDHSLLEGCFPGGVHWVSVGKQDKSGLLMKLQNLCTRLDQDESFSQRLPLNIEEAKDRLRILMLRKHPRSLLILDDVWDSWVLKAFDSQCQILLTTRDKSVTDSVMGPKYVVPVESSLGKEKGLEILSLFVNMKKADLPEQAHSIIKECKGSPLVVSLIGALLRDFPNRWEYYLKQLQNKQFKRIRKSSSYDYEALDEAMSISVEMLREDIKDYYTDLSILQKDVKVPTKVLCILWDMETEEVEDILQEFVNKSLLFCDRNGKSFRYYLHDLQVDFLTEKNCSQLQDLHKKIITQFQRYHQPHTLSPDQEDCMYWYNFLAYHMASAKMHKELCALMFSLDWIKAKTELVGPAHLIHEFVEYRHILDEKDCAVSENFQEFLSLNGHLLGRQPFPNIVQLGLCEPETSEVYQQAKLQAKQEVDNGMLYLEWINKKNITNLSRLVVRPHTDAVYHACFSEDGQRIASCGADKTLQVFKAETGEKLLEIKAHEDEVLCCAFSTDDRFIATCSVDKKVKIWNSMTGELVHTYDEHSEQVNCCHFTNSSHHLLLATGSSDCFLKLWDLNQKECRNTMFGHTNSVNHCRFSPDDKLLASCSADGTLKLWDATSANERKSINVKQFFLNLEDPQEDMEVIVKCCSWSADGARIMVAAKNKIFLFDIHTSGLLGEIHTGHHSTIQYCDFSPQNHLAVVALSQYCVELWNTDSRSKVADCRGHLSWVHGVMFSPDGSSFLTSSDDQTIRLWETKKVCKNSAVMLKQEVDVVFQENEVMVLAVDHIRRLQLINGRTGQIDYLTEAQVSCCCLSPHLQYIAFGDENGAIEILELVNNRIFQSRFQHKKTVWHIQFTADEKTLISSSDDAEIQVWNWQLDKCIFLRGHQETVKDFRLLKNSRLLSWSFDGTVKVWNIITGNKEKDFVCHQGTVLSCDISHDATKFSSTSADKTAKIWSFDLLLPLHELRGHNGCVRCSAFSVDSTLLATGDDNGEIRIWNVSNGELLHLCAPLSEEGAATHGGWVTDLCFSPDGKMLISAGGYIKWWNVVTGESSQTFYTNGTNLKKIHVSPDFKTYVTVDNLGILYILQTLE
Assay: cryo-EM structure; apoptosome assembled from full-length Apaf-1 with horse CytC (Sigma) at ~1:2 and 1 mM dATP; ~5 μM on grids; 3.8 Å overall, ~5 Å in the spokes after local masking
Conditions: remark: other sources report otherwise

B1: full-length human Apaf-1 (residues 1–1248), O14727 1-1248 (natural protein)
chain: T1 chain
In the case of B1, the stoichiometry N is reported as 7.
